# From patent publication US20200181261A1 (Bayer, published 2020)
# Where “and” joins values, the source holds several entries; their conditions need not be identical. Equal entries are not always repeated.
# T1: human CEACAM6, full-length, on cells (human, UniProt P40199 35-320)
# T1 construct: used both for transfected HeLa cells and for tumor cell lines that express CEACAM6 endogenously; also called TPP-4639; HeLa human CEACAM6
# T1 sequence: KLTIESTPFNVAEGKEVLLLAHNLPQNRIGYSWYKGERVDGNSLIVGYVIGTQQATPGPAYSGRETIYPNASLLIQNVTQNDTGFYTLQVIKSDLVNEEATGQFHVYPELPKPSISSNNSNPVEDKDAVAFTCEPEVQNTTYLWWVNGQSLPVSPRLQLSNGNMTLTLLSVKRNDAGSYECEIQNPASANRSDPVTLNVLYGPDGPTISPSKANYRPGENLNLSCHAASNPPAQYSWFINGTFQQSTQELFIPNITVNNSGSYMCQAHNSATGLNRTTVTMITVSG
# T2: Human CEACAM6-Domain 1-His-I30L (I63L according to SEQ-ID NO: 179) (human)
# T2 construct: the entry already carries the substitution; also called TPP-8697
# T2 chain: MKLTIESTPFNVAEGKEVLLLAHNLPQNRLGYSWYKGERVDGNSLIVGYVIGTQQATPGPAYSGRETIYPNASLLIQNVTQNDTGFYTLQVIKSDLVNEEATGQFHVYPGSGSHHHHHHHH
# T3: Macaca fascicularis CEACAM6-Domain 1, obtained by Factor Xa cleavage of TPP-2452 (Macaca fascicularis)
# T3 construct: also called APP-325; cynoC6-D1
# T3 chain: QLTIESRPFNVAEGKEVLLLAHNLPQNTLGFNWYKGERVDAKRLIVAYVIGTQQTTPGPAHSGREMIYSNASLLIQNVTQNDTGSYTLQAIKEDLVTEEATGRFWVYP
# Legend:
# [1] = biological target: T1, human CEACAM6, full-length, on cells; experiment: FACS, T84 cells (endogenous CEACAM6)
# Procedure: (§1) For FACS experiments HeLa wild type cells were cultured in RPMI-1640, 10% FCS, while CEACAM-receptor transfected HeLa cells received in addition 0.5% Gentamycin (stock 10 mg/ml, Fa. PAA) and 200 μg/ml Hygromycin B (stock 50 mg/ml, Invitrogen). Cells were washed 3 times with PBS w/o Ca²⁺/Mg²⁺ and were detached from the culture plate non-enzymatically with EDTA dissociation buffer (Gibco). Cells were washed in cold FACS buffer (PBS w/o Ca²⁺/Mg²⁺ and heat-inactivated 3% FCS) and were counted using a countess machine (Invitrogen). 10⁵ cells per well were plated and incubated with the respective primary antibody (5 μg/ml) for 1 h at 4° C. on a plate shaker. […] After 2 times washing the cells were resuspended in 100 μl FACS buffer and were analysed on a FACS Canto II machine (Beckton Dickinson) or a FACS Array (Beckton Dickinson).
# (§2) For EC₅₀ analysis, the primary antibodies were used at increasing concentrations in a range from 0.1 nM to 100 nM. Half maximal binding values (EC₅₀) were determined by plotting the median fluorescence intensity signal against the concentration (logarithmic scale). Curve fitting of data was performed using the Graph Pad prism analysis software.
# (§3) Anti-CEACAM6 antibodies were also tested for their binding to different cancer cell lines that endogenously express CEACAM6 by FACS analysis. […]
# [2] = biological target: T1, human CEACAM6, full-length, on cells; experiment: cell-based or functional assay
# [3] = biological target: T1, human CEACAM6, full-length, on cells; experiment: FACS, PaTu-8902 cells (endogenous CEACAM6)
# Procedure: as §1, §2, §3
# [4] = biological target: T1, human CEACAM6, full-length, on cells; experiment: FACS, KS cells (endogenous CEACAM6)
# [5] = biological target: T1, human CEACAM6, full-length, on cells; experiment: FACS, NCI-H1993 cells (endogenous CEACAM6)
# Procedure: as §1, §2, §3
# [6] = biological target: T1, human CEACAM6, full-length, on cells; experiment: FACS, SNU-C1 cells (endogenous CEACAM6)
# Procedure: as §1, §2, §3
# [7] = biological target: T2, Human CEACAM6-Domain 1-His-I30L (I63L …); experiment: ELISA, domain 1 protein coated
# Procedure: The proteins were expressed in E. coli, refolded and purified as described in Example 1. Comparative binding activity to domain 1 wild-type protein and the two single mutations was determined by ELISA method. 1.5 ug/ml protein solutions in PBS were coated overnight to 384 Nunc MaxiSorp plates (Sigma, P6491). Plates were washed with PBS/T and blocked with Smart block (CANDOR Bioscience GmbH, 113125). […] After washing with PBS/T, bound antibodies were detected with Anti Human IgG Fc POD (Sigma, A0170) and 10 μM Amplex Red solution (Thermo, A12222). Positive binding signals were detected via Fluorescence (Ex. 535 nm/Em. 590 nm).
# [8] = biological target: T3, Macaca fascicularis CEACAM6-Domain 1, …; experiment: SPR, antibody captured, antigen as analyte
EC50 [1],EC50 [3],EC50 [4],EC50 [5],EC50 [6],binding result [7],Kd [8],Binder,IC50 of the dose dependent effect on TIL mediated killing of HCC2935 cells (xCELLigence) [2]
0.3 nM,0.15 nM,0.8 nM,0.8 to 1.6 nM,0.5 nM,binds,–,"TPP-3310 (antibody, human IgG2, kappa, humanized from TPP-2971, human IgG2; also called TPP-2971HU1-hIgG2Kappa) heavy: QVTLRESGPALVKPTQTLTLTCTFSGFSLSTYGIGVGWIRQPPGKALEWLAHIWWNDNKYYSTSLKTRLTISKDTSKNQVVLTMTNMDPVDTATYYCARISLPYFDYWGQGTTLTVSSASTKGPSVFPLAPCSRSTSESTAALGCLVKDYFPEPVTVSWNSGALTSGVHTFPAVLQSSGLYSLSSVVTVPSSNFGTQTYTCNVDHKPSNTKVDKTVERKCCVECPPCPAPPVAGPSVFLFPPKPKDTLMISRTPEVTCVVVDVSHEDPEVQFNWYVDGVEVHNAKTKPREEQFNSTFRVVSVLTVVHQDWLNGKEYKCKVSNKGLPAPIEKTISKTKGQPREPQVYTLPPSREEMTKNQVSLTCLVKGFYPSDIAVEWESNGQPENNYKTTPPMLDSDGSFFLYSKLTVDKSRWQQGNVFSCSVMHEALHNHYTQKSLSLSPG light: DIQLTQSPSFLSASVGDRVTITCKASQNVGTAVAWYQQKPGKAPKLLIYSASNRYTGVPSRFSGSGSGTEFTLTISSLQPEDFATYYCQQYSSYPLTFGGGTKVEIKRTVAAPSVFIFPPSDEQLKSGTASVVCLLNNFYPREAKVQWKVDNALQSGNSQESVTEQDSKDSTYSLSSTLTLSKADYEKHKVYACEVTHQGLSSPVTKSFNRGEC",0.62 µg/mL and 0.21 µg/mL
–,–,–,–,–,–,30 nM,"TPP-2971 (antibody, mouse IgG1, V domains shown, murine hybridoma antibody, mouse IgG1; also called 792.15H12C9) VH: QVTLKESGPGILQPSQTLSLTCSFSGFSLSTYGIGVGWIRQPSGKDLEWLAHIWWNDNKYYNTALKSRLTISKDTSNNQVFLKIASVDTADTATYYCARISLPYFDYWGQGTTLTVSS VL: DIVMTQSQKFMSTSVGDRVSITCKASQNVGTAVAWYQQKPGQSPKLLIYSASNRYTGVPDRFTGSGSGTDFTLTISNMQSEDLADYFCQQYSSYPLTFGAGTKLELK",–
–,–,–,–,–,–,42 nM,"TPP-3187 (antibody, mouse IgG1, V domains shown, murine hybridoma antibody, mouse IgG1; also called 792.15C4F4) VH: QVTLKESGPGILQPSQTLSLTCSFSGFSLTTYGIGVGWIRQPSGKGLEWLAHIWWNDNKYYNTALKSRLTISKDTSNNQVFLKIASVDTADTATYYCARISLPYFDYWGQGTTLTVSS VL: DIVMTQSQKFMSTSVGDRVSITCKASQNVGTAVAWYQQKPGQSPKLLIYSASNRYTGVPDRFTGSGSGTDFTLTISNMQSEDLADYFCQQYNNYPLTFGAGTKLELK",–
